Results on two molecules are retold here after doi:10.1101/2021.07.31.454597 (bioRxiv, 2021).

One may read the stoichiometry N as the number of molecules, sites or subunits per partner or assembly.

Data set [1] addresses Cre^Yang (R72E/L115D/R199D) (UniProt P06956). In words: native MS.
The data set “cryo-EM structure” concerns the molecule itself. In words: cryo-EM structure.

Regarding “Cre^Yin (D33A/A36V/R192A) (from UniProt P06956 1-343) (enzyme)”, in data set [1], the percent of the 2:1 protein:loxP complexes (ion counts) stood at 36%.

B1: Cre^K201A (enzyme)
chain: MSNLLTVHQNLPALPVDATSDEVRKNLMDMFRDRQAFSEHTWKMLLSVCRSWAAWCKLNNRKWFPAEPEDVRDYLLYLQARGLAVKTIQQHLGQLNMLHRRSGLPRPSDSNAVSLVMRRIRKENVDAGERAKQALAFERTDFDQVRSLMENSDRCQDIRNLAFLGIAYNTLLRIAEIARIRVKDISRTDGGRMLIHIGRTATLVSTAGVEKALSLGVTKLVERWISVSGVADDPNNYLFCRVRKNGVAAPSATSQLSTRALEGIFEATHRLIYGAKDDSGQRYLAWSGHSARVGAARDMARAGVSIPEIMQAGGWTNVNIVMNYIRNLDSETGAMVRLLEDGD
On to B1, for which the “stoichiometry N” value in “cryo-EM structure” is 4.
